Test results reported in patent publication US20240190986A1 (ZHEJIANG NANOMAB TECHNOLOGY CENTER, published 2024).
Numbering of substitutions follows the chain as printed.

B1: M156 (VHH)
VHH: QVQLVESGGGLVQAGGSLRLSCAVSGISFEYYAIGWFRQAPGKEREAVSCTTSGTTSGGGVTDYADSLKGRFTISRDVAKNTVYLQMNNLTPEDTAVYYCAADIHCRGYVLFVPSDFGNWGQGTQVTVSS
notes: Nanoantibody in TG1 supernatant in the screening ELISA; also called clone M156
B2: M132 (VHH)
VHH: QVQLVESGGGLVQAGGSLSLSCVASGDAFSFDAMGWYRQFSGKVNERQLVVATSRDGRTAYGERVKGRFTASRDNSKNTLSLVMNNLQVEDTAIYYCAAGDDPKDYYWGQGTQVTVSS
notes: Nanoantibody in TG1 supernatant in the screening ELISA; also called clone M132
B3: M001 (VHH)
VHH: EVQLVESGGGLVQAGGSLRLSCAASGSIFNINAMGWYRQAPGKEWERELVATISSSNSDNTYYKDSVKGRFTISTNTAKNTWYLQMNSLKPEDTAMYYCAAENYDRKDRYWGQGTQVTVSS
notes: Nanoantibody in TG1 supernatant in the screening ELISA; also called clone M001
B4: M003 (VHH)
VHH: B3 VHH with E1Q, A23T, S27N, N30S, A40P, S56T, D65E, Y104F, G112A
notes: Nanoantibody in TG1 supernatant in the screening ELISA; also called clone M003
B5: M129 (VHH)
VHH: QVQLVESGGGSAQAGGSLILSCVASANLFTIDALGWYRQAPGPKRELVAAISSGGNKYYADAVKGRFTISRDTLTKTMWLQMNNLKPEDTAMYYCAAEDYGLGQRSWGMGTQVTVSS
notes: Nanoantibody in TG1 supernatant in the screening ELISA; also called clone M129
B6: M012 (VHH)
VHH: QVQLVESGGDLVQTGGSLRLSCVVSGSTFAINAMGWYRQAPGKERELVAAISSGGDSTHYADDVKGRFTISRDNAENTMYLQMKSLKPEDTAVYVCNARGCRDFHNPQALCVLRDYWGQGTQVTVSS
notes: Nanoantibody in TG1 supernatant in the screening ELISA; also called clone M012
B7: M119 (VHH)
VHH: EVQLVESGGGLVQPGGSLRLSCVASGSDLSFDAMGWYRQFSATVRERQLVVATSRDGRIYYGDSVKGRFTASRDNLKNSVDLEMNNLKPEDTAIYYCAAGDDPKNYDWGPGTQVTVSS
notes: Nanoantibody in TG1 supernatant in the screening ELISA; also called clone M119
B8: M143 (VHH)
VHH: EVQLVESGGGLVQAGGSLRLSCSASEKTFSIKYMGYYRQGPGIERKLVATIDTDGKTWYADSVKGRFTISRENGENEIGLEMNRLKPEDTAMYYCAGETGTYPKPEYWGQGTQVTVSS
notes: Nanoantibody in TG1 supernatant in the screening ELISA; also called clone M143
B9: M050 (VHH)
VHH: EVQLQESGGGLVQAGGSLRLSCAASGAVSSINAMGWYRQTPEKVRKLVATMGSGGNTYYADSVKGRFTISRDYAKNTVALQMNNLIPEDTAVYYCAADKFGADIHEVDYWGKGTLVTVSS
notes: Nanoantibody in TG1 supernatant in the screening ELISA; also called clone M050
B10: M182 (VHH)
VHH: QVQLVESGGGSVQAGGSLTLSCAASGAVSSINAMGWYRQTPEKVRQLVATMGSGGNTYYAASVKGRFTISRDYAKNTVALQMNHLLPEDTAVYYCAADRFGADIREVDYWGKGTQVTVSS
notes: Nanoantibody in TG1 supernatant in the screening ELISA; also called clone M182
B11: M032 (VHH)
VHH: EVQLVESGGGSVQAGGSLKISCAASGSVIDIGAMGWYRHITEKERKLVATINAGGNTYYADSVKGRFTISRDNAKYTVYLQMNSLKPEDTAMYYCAAEDINYTGTEAYYWGQGTQVTVSS
notes: Nanoantibody in TG1 supernatant in the screening ELISA; also called clone M032
B12: M137 (VHH)
VHH: QVQLVESGGGLVQAGGSLSLSCAASGSLSSINAMGWYRQLPEMRQLVATMGSDGKTYYADSVKGRFTISRDYAKYTVSLQMNNLRPEDTAIYYCAADRFGAPIHDVDYWGKGTLVTVSV
notes: Nanoantibody in TG1 supernatant in the screening ELISA; also called clone M137
B13: M047 (VHH)
VHH: QVQLVETGGGSVQAGGSLRLSCAASGSIASIDAMGWYRQVPGKEWERELVATISSSNSDNKYYKDSVKGRFTISTNIAKNTWYLQMNNLKPEDTAMYYCAAEDYDTKDRFWGQGTQVTVSS
notes: Nanoantibody in TG1 supernatant in the screening ELISA; also called clone M047
B14: M044 (VHH)
VHH: QVQVVESGGGFVQAGGSLRLSCAASTPIISIAYMGWYRQISEKERQLVATINSGGKTYYADSVKGRFTISRDNAKNTLYLQMNMLKPEDTGMYYCAASNKDYNDYDPDWGQGTQVTVSS
notes: Nanoantibody in TG1 supernatant in the screening ELISA; also called clone M044; M044 antibody
B15: M010 (VHH)
VHH: QVQLVESGGGLVQAGGSLRLSCAASGSVSSINAMGWYRQGTGEVRKLVATMGSGGNTYYADSVKGRFFITRDYSKNTVSLQMNNLTPEDSATYYCAADRFGASIHEVDYWGKGTLVTVSS
notes: Nanoantibody in TG1 supernatant in the screening ELISA; also called clone M010
B16: M118 (VHH)
VHH: EVQLVESGGGLVQAGGSLTLSCAASEHTFTIDAMGYYRQIPGRRNERQLVAAAGRTGTTYYNDAVKDRFTIYRDTSKETIILQMNNLRPEDTTMYYCAVERYSDQSRFFGPGTQVTVSS
notes: Nanoantibody in TG1 supernatant in the screening ELISA; also called clone M118
B17: M005 (VHH)
VHH: EVQLVESGGGWVQSGGSLRLACAASGSSFGLNVVGWYRQAPDKQRELVASIGNGGRTTDYADSVKGRFTISSDNAKNTVFLQMNDLKPEDTAVYYCHLRASVTKGYWGQGTQVTVSS
notes: Nanoantibody in TG1 supernatant in the screening ELISA; also called clone M005
B18: M126 (VHH)
VHH: B17 VHH with S27D, Q39L, V93M, A100V, K104E
notes: Nanoantibody in TG1 supernatant in the screening ELISA; also called clone M126
B19: M2339-z11-1 (antibody, IgG4, V domains shown)
VH: EVQLVASGGGLVQPGGSLRLSCALSGFTLRELDEFAIGWFRQAPGKEREGVSCISGTGGITHYADSVKGRFTISRDNSKTTVYLQMNSLRAEDTAVYYCAADERCTDRLIRPPTYWGQGTQVTVSS
notes: Humanized variant of M2339
B20: M2339-z11-9 (antibody, IgG4, V domains shown)
VH: B19 VH with E1Q, V2L, N77I, S78A, R90N, A91S
notes: Humanized variant of M2339
B21: M2339-z11-8 (antibody, IgG4, V domains shown)
VH: B19 VH with E1Q, V2L, V5G, A6E, N77I, S78A, R90N, A91S
notes: Humanized variant of M2339
B22: M2339-z11-14 (antibody, IgG4, V domains shown)
VH: B19 VH with E1Q, V2L, V5G, N77I, S78A, T80N, R90N, A91S
notes: Humanized variant of M2339
B23: M2339-z11-12 (antibody, IgG4, V domains shown)
VH: B19 VH with V5G, N77I, S78A, R90N, A91S
notes: Humanized variant of M2339
B24: M2339-z11-13 (antibody, IgG4, V domains shown)
VH: B19 VH with E1Q, V2L, V5G, R90N, A91S
notes: Humanized variant of M2339
B25: M2339-z11-10 (antibody, IgG4, V domains shown)
VH: B19 VH with E1Q, V2L, A6E, N77I, S78A, R90N, A91S
notes: Humanized variant of M2339
B26: M2339-z11-3 (antibody, IgG4, V domains shown)
VH: B19 VH with V2L
notes: Humanized variant of M2339
B27: M2339-z11-7 (antibody, IgG4, V domains shown)
VH: B19 VH with V2L, V5G
notes: Humanized variant of M2339
B28: M2339-z11-11 (antibody, IgG4, V domains shown)
VH: B19 VH with E1Q, V2L, V5G, L24A, N77I, S78A, R90N, A91S
notes: Humanized variant of M2339
B29: M2339-z11-16 (antibody, IgG4, V domains shown)
VH: B19 VH with E1Q, V2L, V5G, N77I, S78A
notes: Humanized variant of M2339
B30: M2339-z11-5 (antibody, IgG4, V domains shown)
VH: B19 VH with R90N
notes: Humanized variant of M2339
B31: M2339-z11-6 (antibody, IgG4, V domains shown)
VH: B19 VH with A91S
notes: Humanized variant of M2339
B32: M2339-z11-17 (antibody, IgG4, V domains shown)
VH: B19 VH with V2L, V5G, T80N, V82L
notes: Humanized variant of M2339
B33: M2339-z11-2 (antibody, IgG4, V domains shown)
VH: B19 VH with E1Q
notes: Humanized variant of M2339
B34: M2339-z11-4 (antibody, IgG4, V domains shown)
VH: B19 VH with V5G
notes: Humanized variant of M2339
B35: M2339-z11-15 (antibody, IgG4, V domains shown)
VH: B19 VH with E1Q, V2L, V5G, N77I, S78A, V82L, R90N, A91S
notes: Humanized variant of M2339

What follows are binders tested against T1, MSLN.Fc protein (human, UniProt Q13421 296-598, limits assumed) (assay: ELISA, antigen coated, TG1 supernatant).
T1 construct: also called MSLN·hFc; MSLN protein; not shown: human IgG Fc fragment
T1 sequence (Q13421 other isoform, or with tags, fused parts or gaps limits assumed): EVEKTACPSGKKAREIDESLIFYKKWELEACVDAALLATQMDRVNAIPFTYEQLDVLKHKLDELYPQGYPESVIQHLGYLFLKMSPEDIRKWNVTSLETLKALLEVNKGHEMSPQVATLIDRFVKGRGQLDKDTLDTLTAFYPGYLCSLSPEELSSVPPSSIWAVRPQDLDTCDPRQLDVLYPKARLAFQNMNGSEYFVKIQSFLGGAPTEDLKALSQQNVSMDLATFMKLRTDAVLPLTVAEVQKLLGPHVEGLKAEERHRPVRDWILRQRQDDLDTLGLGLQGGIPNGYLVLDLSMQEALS

| ELISA (OD450) | Binder |
| --- | --- |
| 1.67 OD450 | B1 |
| 1.34 OD450 | B2 |
| 1.72 OD450 | B3 |
| 2.38 OD450 | B4 |
| 2.4 OD450 | B5 |
| 0.938 OD450 | B6 |
| 2.49 OD450 | B7 |
| 1.62 OD450 | B8 |
| 2.72 OD450 | B9 |
| 1.03 OD450 | B10 |
| 1.41 OD450 | B11 |
| 1.27 OD450 | B12 |
| 1.98 OD450 | B13 |
| 2.2 OD450 | B14 |
| 2.75 OD450 | B15 |
| 2.05 OD450 | B16 |
| 1.18 OD450 | B17 |
| 1.95 OD450 | B18 |

Each binder was assayed against T2, MD50 protein (assay: ELISA, antigen coated, TG1 supernatant).
T2 construct: range 487-580; also called proximal membrane fragment of mesothelin
T2 sequence (Q13421 495-588): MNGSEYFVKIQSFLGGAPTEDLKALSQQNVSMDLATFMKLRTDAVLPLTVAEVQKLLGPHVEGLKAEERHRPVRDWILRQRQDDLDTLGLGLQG

| ELISA (OD450) | Binder |
| --- | --- |
| 1.53 OD450 | B1 |
| 1.17 OD450 | B2 |
| 1.35 OD450 | B3 |
| 1.73 OD450 | B4 |
| 1.66 OD450 | B5 |
| 2.05 OD450 | B6 |
| 1.46 OD450 | B7 |
| 1.3 OD450 | B8 |
| 0.512 OD450 | B9 |
| 1.14 OD450 | B10 |
| 1.72 OD450 | B11 |
| 2.09 OD450 | B12 |
| 2.07 OD450 | B13 |
| 2.04 OD450 | B14 |
| 2.09 OD450 | B15 |
| 2.06 OD450 | B16 |
| 1.03 OD450 | B17 |
| 0.926 OD450 | B18 |

Each binder was assayed against T3, MSLN·His protein (human, UniProt Q13421 296-580, limits assumed) (assay: SPR (Biacore), antibody captured on protein A, MSLN·His as analyte).
T3 construct: Bought protein; also called human MSLN·His antigen; not shown: His tag
Description: Referring to the method of humanizing nanoantibodies (J. Biol. Chem. 2009; 284: 3273-3284), M2339 was humanized using the method of CDR region transplantation. In IgBLAST (http://www.ncbi.nlm.nih.gov/igblast/), germline with high homology with M2339 was selected as the template in the database. Biacore was used to detect the affinity of the antibody before and after humanization. The purified antibody was flowed through the sensor chip pre-fixed with protein A, and the antibody was captured by protein A. Then five different concentrations of MSLN·His protein were used as the mobile phase, and the association time and dissociation time were 30 min and 60 min, respectively. The binding rate (ka), dissociation rate (kd), and equilibrium constant (kd) were analyzed using Biacore Evaluation Software 2.0 (GE).

T3 sequence (Q13421 other isoform, or with tags, fused parts or gaps limits assumed): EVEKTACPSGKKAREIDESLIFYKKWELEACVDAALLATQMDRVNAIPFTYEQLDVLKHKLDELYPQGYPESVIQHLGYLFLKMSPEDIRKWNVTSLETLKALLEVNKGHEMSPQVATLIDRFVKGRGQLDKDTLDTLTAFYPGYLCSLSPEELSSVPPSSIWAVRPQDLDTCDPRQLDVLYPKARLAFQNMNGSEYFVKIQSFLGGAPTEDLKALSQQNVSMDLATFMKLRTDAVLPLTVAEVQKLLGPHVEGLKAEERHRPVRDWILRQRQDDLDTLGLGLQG

| Kd | koff | kon | Binder |
| --- | --- | --- | --- |
| 59.5 nM | 0.00608 s⁻¹ | 102000 M⁻¹ s⁻¹ | B19 |
| 0.143 nM | 1.2e-05 s⁻¹ | 83800 M⁻¹ s⁻¹ | B20 |
| 0.361 nM | 1.6e-05 s⁻¹ | 44300 M⁻¹ s⁻¹ | B21 |
| 0.228 nM | 1.01e-05 s⁻¹ | 44400 M⁻¹ s⁻¹ | B22 |
| 12.2 nM | 0.00102 s⁻¹ | 83800 M⁻¹ s⁻¹ | B23 |
| 0.142 nM | 9.29e-06 s⁻¹ | 65200 M⁻¹ s⁻¹ | B24 |
| 0.239 nM | 9.81e-06 s⁻¹ | 41000 M⁻¹ s⁻¹ | B25 |
| 2.78 nM | 0.000132 s⁻¹ | 47400 M⁻¹ s⁻¹ | B26 |
| 1.3 nM | 5.18e-05 s⁻¹ | 39800 M⁻¹ s⁻¹ | B27 |
| 0.274 nM | 1.18e-05 s⁻¹ | 43000 M⁻¹ s⁻¹ | B28 |
| 0.0961 nM | 6.52e-06 s⁻¹ | 67800 M⁻¹ s⁻¹ | B29 |
| 37.7 nM | 0.00878 s⁻¹ | 233000 M⁻¹ s⁻¹ | B30 |
| 47.4 nM | 0.00824 s⁻¹ | 174000 M⁻¹ s⁻¹ | B31 |
| 3.98 nM | 0.000156 s⁻¹ | 39300 M⁻¹ s⁻¹ | B32 |
| 0.279 nM | 1.74e-05 s⁻¹ | 62300 M⁻¹ s⁻¹ | B33 |
| 14.9 nM | 0.00119 s⁻¹ | 80000 M⁻¹ s⁻¹ | B34 |
| 0.16 nM | 1.14e-05 s⁻¹ | 71000 M⁻¹ s⁻¹ | B35 |
